{
  "source": "patent US20110300229A1",
  "about": "“TREATING OR PREVENTING ROTAVIRUS INFECTION” (FONTERRA CO-OPERATIVE GROUP LIMITED, priority 2007, published 2011)",
  "key": {"human Wa rotavirus": {"system": "human Wa rotavirus", "details": "cited from earlier work"}, "[1]": {"system": "human rotavirus strain Wa", "test": "Rotavirus infection assay in HT29 cells (crystal violet, % uninfected cells)", "type": "cell-based", "protocol": "The HT29 cell line was used to propagate the human rotavirus strain Wa (neuraminidase resistant) in the presence of 1 μg/ml trypsin in Dulbecco's minimal essential medium (DMEM) supplemented with 10% foetal calf serum and penicillin/streptomycin (100 μg/ml/100 units/ml). Rotavirus was harvested by freeze thawing twice, spun at 750 g to remove cell debris and stored at −80° C. The rotavirus was assayed and found to contain […] plaque forming units (pfu)/ml.\nThe infection assay used was based on a number of published assays (Scott et al 1979; Smith et al 1979; Guarino et al 1996; Superb et al 2001). Confluent HT29 cells grown in DMEM (seeded at 3×10^5/ml in 96 well plates) were washed twice in sterile PBS. Doubling dilutions of each of the products to be screened (initial concentration 5 mg/ml) were made in the plate in 50 μl volumes of DMEM. Virus was added (10^4 pfu/well) to all wells except the cells only control and plates were then incubated for two hours in 5% CO2 at 37° C. Other controls included virus plus cells, lipids only, pure GM3 and pure GD3. Following the two-hour incubation trypsin was added to all the wells containing virus at a concentration of 2 μg/ml—this step cleaves VP4 to polypeptides VP8 and VP5 and is needed for the virion to penetrate into the cells' interior. Plates were incubated at 37° C. in 5% CO2 for seven days and were checked daily for cytopathic effect in the virus only control wells. Media was removed and plates washed in sterile PBS, air-dried and fixed with methanol for one minute. Plates were air dried and then stained with 100 μl/well of 1% crystal violet (351884W, BDH, England) for five minutes. Plates were washed four times with sterile water to remove excess stain. 100 μl of acetic acid per well was added to solubilise the stain and absorbance was read at a wavelength of 595 nm in a Biorad ELISA plate reader. Each sample was assayed on a minimum of three separate occasions and the percentage of uninfected cells calculated.\nStatistical analysis was performed using an unpaired Student t test (InStat for MacIntosh) to compare the effect of the lipid products derived from bovine milk with the virus only control at the lowest dilution of the product."}},
  "note": "Marks after values point to notes of the source that are not given here.",
  "data": [
    {"molecule": "bovine MUC1 mucin: bovine milk mucin, cited from Kvistgaard et al, 2004 (protein, UniProt Q8WML4 23-580, looked up) Mucin-1: NVPTLTTSDSINPRRTTPVSTTQSSPTSSPTKETSWSTTTTLLTASSPAPSPAASPGHDGASTPTSSPAPSPAASPGHDGASTPTSSPAPSPAASPGHDGASTPTSSPAPSPAASPGHDGASTPTSSPAPSPAASPGHNGTSSPTGSPAPSPAASPGHDGASTPTSSPAPSPAASPGHNGTSSPTGSPAPSPAASPGHDGASTPTSSPAPSPAASPGHNGTSSPTGSPAPSPTASPGHDSAPSLTSSPAPSPTASPGQHGASSPTSSDTSSMTTRSMSSSMVTSAHKGTSSRATMTPVSKGTPSSVPSSETAPTAASHITRTAASSPSIALSTSSNPKTSQQLSVRVSLYFLSFRITNLQFNSSLENPQTSYYQELQRSIWGLILQIYKQRDFLGLSEIKFRPGSVVVELTLAFREGTTAEWVKAQFSQLEAHAASYNLTISGVSVYSAPFPSSAQAGSGVPGWGIALLVLVCVLVALAIIYLIALVVCQCGRKKCEQLDVFPTLDAYHPMSEYSTYHTHGRYVPPGSTKRSPYEEVSAGNGGSNLSYTNLAATSANL", "values": [
      {"measurement": "prevention of human Wa rotavirus infection in vitro", "setting": "human Wa rotavirus", "result": "could not prevent"}
    ]},
    {"molecule": "bovine lactoferrin: bovine milk protein, result cited from Kvistgaard et al, 2004 (protein, UniProt P24627 20-708, looked up) Lactotransferrin: APRKNVRWCTISQPEWFKCRRWQWRMKKLGAPSITCVRRAFALECIRAIAEKKADAVTLDGGMVFEAGRDPYKLRPVAAEIYGTKESPQTHYYAVAVVKKGSNFQLDQLQGRKSCHTGLGRSAGWIIPMGILRPYLSWTESLEPLQGAVAKFFSASCVPCIDRQAYPNLCQLCKGEGENQCACSSREPYFGYSGAFKCLQDGAGDVAFVKETTVFENLPEKADRDQYELLCLNNSRAPVDAFKECHLAQVPSHAVVARSVDGKEDLIWKLLSKAQEKFGKNKSRSFQLFGSPPGQRDLLFKDSALGFLRIPSKVDSALYLGSRYLTTLKNLRETAEEVKARYTRVVWCAVGPEEQKKCQQWSQQSGQNVTCATASTTDDCIVLVLKGEADALNLDGGYIYTAGKCGLVPVLAENRKSSKHSSLDCVLRPTEGYLAVAVVKKANEGLTWNSLKDKKSCHTAVDRTAGWNIPMGLIVNQTGSCAFDEFFSQSCAPGADPKSRLCALCAGDDQGLDKCVPNSKEKYYGYTGAFRCLAEDVGDVAFVKNDTVWENTNGESTADWAKNLNREDFRLLCLDGTRKPVTEAQSCHLAVAPNHAVVSRSDRAAHVKQVLLHQQALFGKNGKNCPDKFCLFKSETKNLLFNDNTECLAKLGGRPTYEEYLGTEYVTAIANLKKCSTSPLLEACAFLTR", "values": [
      {"measurement": "prevention of human Wa rotavirus infection in vitro", "setting": "human Wa rotavirus", "result": "could not prevent"}
    ]},
    {"molecule": "Lactoferrin: lactoferrin provided by Fonterra Co-operative Group Limited; comparative material (protein, UniProt P24627 20-708, looked up) Lactotransferrin: APRKNVRWCTISQPEWFKCRRWQWRMKKLGAPSITCVRRAFALECIRAIAEKKADAVTLDGGMVFEAGRDPYKLRPVAAEIYGTKESPQTHYYAVAVVKKGSNFQLDQLQGRKSCHTGLGRSAGWIIPMGILRPYLSWTESLEPLQGAVAKFFSASCVPCIDRQAYPNLCQLCKGEGENQCACSSREPYFGYSGAFKCLQDGAGDVAFVKETTVFENLPEKADRDQYELLCLNNSRAPVDAFKECHLAQVPSHAVVARSVDGKEDLIWKLLSKAQEKFGKNKSRSFQLFGSPPGQRDLLFKDSALGFLRIPSKVDSALYLGSRYLTTLKNLRETAEEVKARYTRVVWCAVGPEEQKKCQQWSQQSGQNVTCATASTTDDCIVLVLKGEADALNLDGGYIYTAGKCGLVPVLAENRKSSKHSSLDCVLRPTEGYLAVAVVKKANEGLTWNSLKDKKSCHTAVDRTAGWNIPMGLIVNQTGSCAFDEFFSQSCAPGADPKSRLCALCAGDDQGLDKCVPNSKEKYYGYTGAFRCLAEDVGDVAFVKNDTVWENTNGESTADWAKNLNREDFRLLCLDGTRKPVTEAQSCHLAVAPNHAVVSRSDRAAHVKQVLLHQQALFGKNGKNCPDKFCLFKSETKNLLFNDNTECLAKLGGRPTYEEYLGTEYVTAIANLKKCSTSPLLEACAFLTR", "values": [
      {"measurement": "Percentage of HT29 cells uninfected by rotavirus", "setting": "[1]; 0.3125 mg/ml", "result": "60 +/− 8 ** %"},
      {"measurement": "Percentage of HT29 cells uninfected by rotavirus", "setting": "[1]; 0.625 mg/ml", "result": "65 +/− 8 *** %"},
      {"measurement": "Percentage of HT29 cells uninfected by rotavirus", "setting": "[1]; 1.25 mg/ml", "result": "73 +/− 12 *** %"},
      {"measurement": "Percentage of HT29 cells uninfected by rotavirus", "setting": "[1]; 2.5 mg/ml", "result": "87 +/− 4 *** %"},
      {"measurement": "Percentage of HT29 cells uninfected by rotavirus", "setting": "[1]; 5 mg/ml", "result": "67 +/− 4 *** %"}
    ]},
    {"molecule": "bovine lactadherin: bovine milk fat globule membrane glycoprotein, cited from Kvistgaard et al, 2004 (protein, UniProt Q95114 19-427, looked up) Lactadherin: ASGDFCDSSLCLHGGTCLLNEDRTPPFYCLCPEGFTGLLCNETEHGPCFPNPCHNDAECQVTDDSHRGDVFIQYICKCPLGYVGIHCETTCTSPLGMQTGAIADSQISASSMHLGFMGLQRWAPELARLHQTGIVNAWTSGNYDKNPWIQVNLMRKMWVTGVVTQGASRAGSAEYLKTFKVAYSTDGRQFQFIQVAGRSGDKIFIGNVNNSGLKINLFDTPLETQYVRLVPIICHRGCTLRFELLGCELNGCTEPLGLKDNTIPNKQITASSYYKTWGLSAFSWFPYYARLDNQGKFNAWTAQTNSASEWLQIDLGSQKRVTGIITQGARDFGHIQYVAAYRVAYGDDGVTWTEYKDPGASESKIFPGNMDNNSHKKNIFETPFQARFVRIQPVAWHNRITLRVELLGC", "values": [
      {"measurement": "prevention of human Wa rotavirus infection in vitro", "setting": "human Wa rotavirus", "result": "could not prevent"}
    ]}
  ]
}
